Experimental data from PMC9482650, “Quantitative fragmentomics allow affinity mapping of interactomes” (Nature Communications, 2022).

T1: GRIP1_7, Q9Y3R0
T1 sequence (Q9Y3R0 999-1096, limits assumed, looked up): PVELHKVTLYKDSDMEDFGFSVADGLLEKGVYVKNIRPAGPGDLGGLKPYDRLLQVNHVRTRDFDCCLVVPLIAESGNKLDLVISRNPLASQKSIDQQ

T2: SNTG1, Q9NSN8
T2 sequence (Q9NSN8 52-150, limits assumed, looked up): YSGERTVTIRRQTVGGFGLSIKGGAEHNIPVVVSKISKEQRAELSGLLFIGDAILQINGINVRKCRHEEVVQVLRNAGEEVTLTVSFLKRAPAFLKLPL

T3: LNX2_3, Q8N448
T3 sequence (Q8N448 463-564, limits assumed, looked up): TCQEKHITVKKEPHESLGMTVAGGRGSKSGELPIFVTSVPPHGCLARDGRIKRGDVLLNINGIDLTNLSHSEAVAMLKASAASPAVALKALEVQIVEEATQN

T4: TIAM2, Q8IVF5
T4 sequence (Q8IVF5 885-986, limits assumed, looked up): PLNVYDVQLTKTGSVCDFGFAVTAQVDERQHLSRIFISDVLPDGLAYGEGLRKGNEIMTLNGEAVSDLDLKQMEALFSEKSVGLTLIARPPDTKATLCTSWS

T5: APBA3_1, O96018
T5 sequence (O96018 389-490, limits assumed, looked up): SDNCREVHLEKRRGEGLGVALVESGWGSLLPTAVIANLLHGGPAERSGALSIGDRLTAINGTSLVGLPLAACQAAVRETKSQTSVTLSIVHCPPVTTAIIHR

T6: APBA2_1, Q99767
T6 sequence (Q99767 563-664, limits assumed, looked up): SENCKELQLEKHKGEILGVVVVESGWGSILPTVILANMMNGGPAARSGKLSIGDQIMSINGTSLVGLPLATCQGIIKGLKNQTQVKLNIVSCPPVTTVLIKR

T7: MPP6, Q9NZW5
T7 sequence (Q9NZW5 125-219, limits assumed, looked up): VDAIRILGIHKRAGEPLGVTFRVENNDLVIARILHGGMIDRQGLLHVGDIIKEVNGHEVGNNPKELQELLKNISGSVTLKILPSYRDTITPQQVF

T8: PDZD2_2, O15018
T8 sequence (O15018 329-429, limits assumed, looked up): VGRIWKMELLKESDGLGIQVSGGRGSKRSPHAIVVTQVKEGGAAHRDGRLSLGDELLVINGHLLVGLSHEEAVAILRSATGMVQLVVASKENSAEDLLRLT

T9: RAPGEF6, Q8TEU7
T9 sequence (Q8TEU7 525-625, limits assumed, looked up): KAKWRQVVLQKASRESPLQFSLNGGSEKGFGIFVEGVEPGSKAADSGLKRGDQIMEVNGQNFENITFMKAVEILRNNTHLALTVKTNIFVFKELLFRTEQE

T10: RADIL, Q96JH8
T10 sequence (Q96JH8 971-1071, limits assumed, looked up): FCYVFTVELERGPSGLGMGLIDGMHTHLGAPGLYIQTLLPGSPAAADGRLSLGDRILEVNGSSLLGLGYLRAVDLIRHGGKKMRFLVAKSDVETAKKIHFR

T11: HTRA4, P83105
T11 sequence (P83105 378-476, limits assumed, looked up): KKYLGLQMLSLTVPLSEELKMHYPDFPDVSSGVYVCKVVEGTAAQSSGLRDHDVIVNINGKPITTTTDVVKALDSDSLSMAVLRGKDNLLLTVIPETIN

T12: SNTB1, Q13884
T12 sequence (Q13884 107-205, limits assumed, looked up): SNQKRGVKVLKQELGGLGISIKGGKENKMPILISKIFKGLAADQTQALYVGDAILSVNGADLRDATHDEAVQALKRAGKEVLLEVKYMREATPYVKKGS


Key:
Assay in all cases: holdup assay
Parameters in all cases: key: below the threshold = too weak to quantify, mostly under pKd 3.1 to 4
Settings in all cases: plain residues with an end cap or a label only (N-terminal biotin on a linker: ado-ado)
FRMPD2_2, Q68DX3 = molecular target: FRMPD2_2, Q68DX3
Inadl_3, Q8NI35 = molecular target: Inadl_3, Q8NI35
GRIP1_7, Q9Y3R0 = molecular target: T1, GRIP1_7, Q9Y3R0
SNTG1, Q9NSN8 = molecular target: T2, SNTG1, Q9NSN8
GRIP2_4, Q9C0E4 = molecular target: GRIP2_4, Q9C0E4
LNX2_3, Q8N448 = molecular target: T3, LNX2_3, Q8N448
TIAM2, Q8IVF5 = molecular target: T4, TIAM2, Q8IVF5
APBA3_1, O96018 = molecular target: T5, APBA3_1, O96018
APBA2_1, Q99767 = molecular target: T6, APBA2_1, Q99767
MPP6, Q9NZW5 = molecular target: T7, MPP6, Q9NZW5
TJP1_3, Q07157 = molecular target: TJP1_3, Q07157
GRIP2_6, Q9C0E4 = molecular target: GRIP2_6, Q9C0E4
DLG4_1, P78352 = molecular target: DLG4_1, P78352
DLG5_1, Q8TDM6 = molecular target: DLG5_1, Q8TDM6
PDZD2_2, O15018 = molecular target: T8, PDZD2_2, O15018
RAPGEF6, Q8TEU7 = molecular target: T9, RAPGEF6, Q8TEU7
LIMK2, P53671 = molecular target: LIMK2, P53671
DLG1_1, Q12959 = molecular target: DLG1_1, Q12959
RADIL, Q96JH8 = molecular target: T10, RADIL, Q96JH8
PDLIM1, O00151 = molecular target: PDLIM1, O00151
HTRA4, P83105 = molecular target: T11, HTRA4, P83105
Inadl_2, Q8NI35 = molecular target: Inadl_2, Q8NI35
Inadl_5, Q8NI35 = molecular target: Inadl_5, Q8NI35
SNTB1, Q13884 = molecular target: T12, SNTB1, Q13884
GRIP2_5, Q9C0E4 = molecular target: GRIP2_5, Q9C0E4
Chain of GRIP2_5, Q9C0E4 (Q9C0E4 544-642): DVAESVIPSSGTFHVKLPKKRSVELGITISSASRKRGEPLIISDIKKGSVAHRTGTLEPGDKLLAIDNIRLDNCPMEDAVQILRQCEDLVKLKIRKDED

Chain of Inadl_5, Q8NI35 (Q8NI35 673-780): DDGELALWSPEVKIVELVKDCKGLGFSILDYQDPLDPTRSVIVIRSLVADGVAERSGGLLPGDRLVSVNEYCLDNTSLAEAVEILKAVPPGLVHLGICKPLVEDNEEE
Chain of GRIP2_6, Q9C0E4 (Q9C0E4 648-740): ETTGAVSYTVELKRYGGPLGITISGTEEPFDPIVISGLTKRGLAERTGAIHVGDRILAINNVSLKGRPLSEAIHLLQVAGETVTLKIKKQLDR
Chain of DLG4_1, P78352 (P78352 62-152): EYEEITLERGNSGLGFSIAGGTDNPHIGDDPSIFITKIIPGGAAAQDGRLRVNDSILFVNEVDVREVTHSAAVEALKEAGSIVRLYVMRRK
Chain of Inadl_3, Q8NI35 (Q8NI35 359-469): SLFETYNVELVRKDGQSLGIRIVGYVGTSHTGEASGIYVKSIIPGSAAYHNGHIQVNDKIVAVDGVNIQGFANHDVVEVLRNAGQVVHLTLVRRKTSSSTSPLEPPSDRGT
Chain of FRMPD2_2, Q68DX3 (Q68DX3 944-1038): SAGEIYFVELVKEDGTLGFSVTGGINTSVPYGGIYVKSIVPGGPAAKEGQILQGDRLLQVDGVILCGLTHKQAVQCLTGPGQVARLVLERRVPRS
Chain of DLG5_1, Q8TDM6 (Q8TDM6 617-713): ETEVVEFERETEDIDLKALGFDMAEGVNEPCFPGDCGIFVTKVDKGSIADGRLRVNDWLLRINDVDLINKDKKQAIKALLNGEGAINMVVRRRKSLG
Chain of LIMK2, P53671 (P53671 143-248): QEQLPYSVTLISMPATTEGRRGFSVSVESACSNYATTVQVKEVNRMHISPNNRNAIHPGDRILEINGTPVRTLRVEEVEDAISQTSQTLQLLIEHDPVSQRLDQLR
Chain of PDLIM1, O00151 (O00151 1-87): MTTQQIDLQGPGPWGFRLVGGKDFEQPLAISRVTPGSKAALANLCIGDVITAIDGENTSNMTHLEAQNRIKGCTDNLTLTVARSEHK
Chain of Inadl_2, Q8NI35 (Q8NI35 238-335): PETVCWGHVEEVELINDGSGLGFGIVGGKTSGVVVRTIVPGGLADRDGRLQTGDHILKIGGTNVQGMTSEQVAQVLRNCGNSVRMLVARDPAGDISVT
Chain of TJP1_3, Q07157 (Q07157 416-512): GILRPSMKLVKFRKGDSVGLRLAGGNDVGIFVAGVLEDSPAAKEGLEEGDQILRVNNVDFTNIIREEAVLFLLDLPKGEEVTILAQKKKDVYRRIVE
Chain of GRIP2_4, Q9C0E4 (Q9C0E4 446-548): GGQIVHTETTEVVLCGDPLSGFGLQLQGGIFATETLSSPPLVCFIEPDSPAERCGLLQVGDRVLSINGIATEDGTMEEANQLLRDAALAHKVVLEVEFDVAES

| Binder | pKd (FRMPD2_2, Q68DX3) | pKd (Inadl_3, Q8NI35) | pKd (GRIP1_7, Q9Y3R0) | pKd (SNTG1, Q9NSN8) | pKd (GRIP2_4, Q9C0E4) | pKd (LNX2_3, Q8N448) | pKd (TIAM2, Q8IVF5) | pKd (APBA3_1, O96018) | pKd (APBA2_1, Q99767) | pKd (MPP6, Q9NZW5) | pKd (TJP1_3, Q07157) | pKd (GRIP2_6, Q9C0E4) | pKd (DLG4_1, P78352) | pKd (DLG5_1, Q8TDM6) | pKd (PDZD2_2, O15018) | pKd (RAPGEF6, Q8TEU7) | pKd (LIMK2, P53671) | pKd (DLG1_1, Q12959) | pKd (RADIL, Q96JH8) | pKd (PDLIM1, O00151) | also measured |
| --- | --- | --- | --- | --- | --- | --- | --- | --- | --- | --- | --- | --- | --- | --- | --- | --- | --- | --- | --- | --- | --- |
| VNKSKLLTDV [KCNA1, Q09470] | below the threshold | below the threshold | below the threshold | below the threshold | below the threshold | below the threshold | 3.95 | below the threshold | below the threshold | below the threshold | below the threshold | below the threshold | 4.08 | below the threshold | 4.07 | 3.53 | below the threshold | 4.11 | below the threshold | below the threshold | pKd (HTRA4, P83105): below the threshold; pKd (Inadl_2, Q8NI35): below the threshold; pKd (Inadl_5, Q8NI35): below the threshold; pKd (SNTB1, Q13884): below the threshold; pKd (GRIP2_5, Q9C0E4): below the threshold |
| LSEFKAMDSI [CTNNA1, P35221] | below the threshold | below the threshold | below the threshold | below the threshold | below the threshold | below the threshold | 3.48 | below the threshold | below the threshold | below the threshold | below the threshold | below the threshold | below the threshold | below the threshold | below the threshold | below the threshold | below the threshold | below the threshold | below the threshold | below the threshold | pKd (HTRA4, P83105): 3.85; pKd (Inadl_2, Q8NI35): below the threshold; pKd (Inadl_5, Q8NI35): below the threshold; pKd (SNTB1, Q13884): below the threshold; pKd (GRIP2_5, Q9C0E4): below the threshold |
| EVNETDDTKM [KCNJ1, P48048] | below the threshold | below the threshold | below the threshold | 3.54 | below the threshold | below the threshold | below the threshold | below the threshold | below the threshold | below the threshold | below the threshold | 3.52 | below the threshold | below the threshold | 3.5 | below the threshold | below the threshold | below the threshold | 3.56 | below the threshold | pKd (HTRA4, P83105): 4.14; pKd (Inadl_2, Q8NI35): below the threshold; pKd (Inadl_5, Q8NI35): below the threshold; pKd (SNTB1, Q13884): below the threshold; pKd (GRIP2_5, Q9C0E4): below the threshold |
| TPPAAKKSRI [BAZ1A, Q9NRL2] | below the threshold | below the threshold | below the threshold | below the threshold | below the threshold | below the threshold | below the threshold | below the threshold | below the threshold | below the threshold | below the threshold | below the threshold | below the threshold | 3.57 | 3.97 | 3.53 | below the threshold | below the threshold | below the threshold | below the threshold | pKd (HTRA4, P83105): below the threshold; pKd (Inadl_2, Q8NI35): below the threshold; pKd (Inadl_5, Q8NI35): below the threshold; pKd (SNTB1, Q13884): below the threshold; pKd (GRIP2_5, Q9C0E4): below the threshold |
